Reference: US20210198650A1 (NIBEC, published 2021)

T1: cadherin6 (CDH6)-fc fusion protein (UniProt P55285 54-615, limits assumed)
T1 construct: Immobilised on a carboxymethyl dextran SPR chip; also called K-cadherin
T1 sequence (looked up): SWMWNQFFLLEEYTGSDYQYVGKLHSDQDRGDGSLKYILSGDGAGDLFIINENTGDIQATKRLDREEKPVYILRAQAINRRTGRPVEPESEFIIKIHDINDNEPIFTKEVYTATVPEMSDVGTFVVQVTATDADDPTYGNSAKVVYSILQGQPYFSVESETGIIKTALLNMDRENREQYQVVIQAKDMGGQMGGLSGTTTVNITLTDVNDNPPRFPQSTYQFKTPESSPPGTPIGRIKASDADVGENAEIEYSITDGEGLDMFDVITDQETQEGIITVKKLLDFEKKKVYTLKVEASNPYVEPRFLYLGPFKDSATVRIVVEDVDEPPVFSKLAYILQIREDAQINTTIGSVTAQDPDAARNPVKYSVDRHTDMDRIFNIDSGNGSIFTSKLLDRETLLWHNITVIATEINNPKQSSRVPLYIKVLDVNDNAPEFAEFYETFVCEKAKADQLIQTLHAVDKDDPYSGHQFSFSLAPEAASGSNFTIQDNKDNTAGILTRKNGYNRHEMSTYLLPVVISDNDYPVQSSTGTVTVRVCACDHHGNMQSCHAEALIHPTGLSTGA

B1: GRS-DP polypeptide (GRS 531-600 aa) (peptide)
peptide: MYTVFEHTFHVREGDEQRTFFSFPAVVAPFKCSVLPLSQNQEFMPFVKELSEALTRHGVSHKVDDSSGSI
notes: Linear truncated GRS fragment; also called GRS-DP peptide
B2: GRS-DP-A cyclic (peptide)
peptide: CYTVFEHTFHVREGDEQRTFFSFPC
modifications: cyclic form: "monosulfide linkage" formed between the cysteine residues at the opposite termini (Cys 1 and Cys 25)
notes: Cyclised by spontaneous reaction at pH 8; 3.083 kDa; also called GRS-DP-A cyclic variant

target: T1, cadherin6 (CDH6)-fc fusion protein; experiment: SPR, CDH6-Fc immobilised on carboxymethyl dextran chip, peptide injected
Protocol: Comparison was made of the affinity of the peptides of the present invention for CDH6. The binding of GRS and GRS-derived peptides to cadherin6 (CDH6)-fc fusion protein was analyzed by surface plasmon resonance (SPR) using SR7500DC, Reichert Analytical Instrument (Depew NY). CDH6 was immobilized on a [CMDH chip] carboxymethyl dextran sensor chip via a free carboxyl group on the surface thereof, followed by injecting 0.1M 1-ethyl-3-(3-dimethylaminopropyl) carbodiimide hydrochloride and 0.05M N-hydroxysuccinimide at a flow speed of 5 μL/min to give an activated succinimide ester-modified surface. Various concentrations of GRS and GRS-derived peptides were injected at a flow speed of 30 μL/min into phosphate-based saline, after which a mobile-phase buffer was injected at the same flow speed to determine a dissociation rate. Data was analyzed using Software Scrubber 2.0 (Biological Software, Australia).

Row | Kd | Binder
1 | 83.9 nM | B1
2 | 61.2 nM | MYTVFEHTFHVREGDEQRTFFSFPA (Linear 25-mer, 3.079 kDa) [GRS-DP-A linear (GRS 531-555 aa)]
3 | 51.3 nM | B2
